Each block holds one binder with its values, some of them ahead of it.
What was measured:
[1] = target: T1, 4H235-AA; test: two-hybrid library CCmax;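 also: natural log of median RNA to DNA barcode read ratio; higher means stronger binding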
T1 chain: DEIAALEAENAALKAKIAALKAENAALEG

[2] = target: T2, 4H249-AA; test: two-hybrid library CCmax; conditions: mean of both orientations;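 also: natural log of median RNA to DNA barcode read ratio; higher means stronger binding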
T2 chain: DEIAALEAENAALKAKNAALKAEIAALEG

[3] = target: T3, 4H2580-AA; test: two-hybrid library CCmax; conditions: mean of both orientations;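 also: natural log of median RNA to DNA barcode read ratio; higher means stronger binding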
T3 chain: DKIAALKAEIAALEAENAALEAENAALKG

[4] = target: T4, 4H2604-AA; test: two-hybrid library CCmax; conditions: mean of both orientations;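 also: natural log of median RNA to DNA barcode read ratio; higher means stronger binding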
T4 chain: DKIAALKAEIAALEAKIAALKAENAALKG

[5] = target: T5, 4H2621-AA; test: two-hybrid library CCmax; conditions: mean of both orientations;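 also: natural log of median RNA to DNA barcode read ratio; higher means stronger binding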
T5 chain: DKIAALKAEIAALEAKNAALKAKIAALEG

[6] = target: T6, 4H2760-AA; test: two-hybrid library CCmax; conditions: mean of both orientations;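 also: natural log of median RNA to DNA barcode read ratio; higher means stronger binding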
T6 chain: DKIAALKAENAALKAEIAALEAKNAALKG

[7] = target: T7, 4H2774-AA; test: two-hybrid library CCmax; conditions: mean of both orientations
T7 chain: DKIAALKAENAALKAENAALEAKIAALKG

[8] = target: T8, 4H2903-AA; test: two-hybrid library CCmax; conditions: mean of both orientations
T8 chain: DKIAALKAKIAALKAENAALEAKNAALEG

[9] = target: T9, 4H2947-AA; test: two-hybrid library CCmax; conditions: mean of both orientations
T9 chain: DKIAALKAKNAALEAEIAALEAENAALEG

[10] = target: T10, 4H2961-AA; test: two-hybrid library CCmax; conditions: mean of both orientations
T10 chain: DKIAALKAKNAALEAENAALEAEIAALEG

[11] = target: T11, 4H3049-AA; test: two-hybrid library CCmax; conditions: mean of both orientations
T11 chain: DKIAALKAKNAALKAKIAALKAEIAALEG

[12] = target: T12, 4H3094-AA; test: two-hybrid library CCmax; conditions: mean of both orientations
T12 chain: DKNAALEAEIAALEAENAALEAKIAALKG

[13] = target: T13, 4H324-AA; test: two-hybrid library CCmax; conditions: mean of both orientations
T13 chain: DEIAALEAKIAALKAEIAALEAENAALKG

[14] = target: T14, 4H341-AA; test: two-hybrid library CCmax; conditions: mean of both orientations
T14 chain: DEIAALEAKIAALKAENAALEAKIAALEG

[15] = target: T15, 4H3449-AA; test: two-hybrid library CCmax; conditions: mean of both orientations
T15 chain: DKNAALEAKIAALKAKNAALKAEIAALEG

[16] = target: T16, 4H3619-AA; test: two-hybrid library CCmax; conditions: mean of both orientations
T16 chain: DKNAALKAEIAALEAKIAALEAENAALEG

[17] = target: T17, 4H3629-AA; test: two-hybrid library CCmax; conditions: mean of both orientations
T17 chain: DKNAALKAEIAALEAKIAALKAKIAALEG

[18] = target: T18, 4H3777-AA; test: two-hybrid library CCmax; conditions: mean of both orientations
T18 chain: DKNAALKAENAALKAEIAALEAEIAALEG

[19] = target: T19, 4H380-AA; test: two-hybrid library CCmax; conditions: mean of both orientations
T19 chain: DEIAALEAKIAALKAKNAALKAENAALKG

[20] = target: T20, 4H3915-AA; test: two-hybrid library CCmax; conditions: mean of both orientations
T20 chain: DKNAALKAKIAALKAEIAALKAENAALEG

[21] = target: T21, 4H3974-AA; test: two-hybrid library CCmax; conditions: mean of both orientations
T21 chain: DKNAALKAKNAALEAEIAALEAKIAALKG

[22] = target: T22, 4H432-AA; test: two-hybrid library CCmax; conditions: mean of both orientations
T22 chain: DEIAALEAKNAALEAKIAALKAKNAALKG

[23] = target: T23, 4H446-AA; test: two-hybrid library CCmax; conditions: mean of both orientations
T23 chain: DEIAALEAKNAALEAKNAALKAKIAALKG

[24] = target: T24, 4H63-AA; test: two-hybrid library CCmax; conditions: mean of both orientations
T24 chain: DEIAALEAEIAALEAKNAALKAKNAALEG

[25] = target: T25, O2; test: two-hybrid library CC0; conditions: mean of both orientations
T25 chain: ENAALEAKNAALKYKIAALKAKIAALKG

[26] = target: T26, O3; test: two-hybrid library CC0; conditions: mean of both orientations
T26 chain: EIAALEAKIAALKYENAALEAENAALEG

[27] = target: T27, O4; test: two-hybrid library CC0; conditions: mean of both orientations
T27 chain: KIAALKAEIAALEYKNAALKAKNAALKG

[28] = target: T28, O5; test: two-hybrid library CC0; conditions: mean of both orientations
T28 chain: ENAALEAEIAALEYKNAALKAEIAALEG

[29] = target: T29, O6; test: two-hybrid library CC0; conditions: mean of both orientations
T29 chain: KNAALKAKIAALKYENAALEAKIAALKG

[30] = target: T30, O7; test: two-hybrid library CC0; conditions: mean of both orientations
T30 chain: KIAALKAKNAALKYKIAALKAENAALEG

[31] = target: T31, O8; test: two-hybrid library CC0; conditions: mean of both orientations
T31 chain: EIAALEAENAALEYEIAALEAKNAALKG

[32] = target: T32, O9; test: two-hybrid library CC0; conditions: mean of both orientations
T32 chain: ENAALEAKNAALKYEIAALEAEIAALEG

[33] = target: T33, 4H496-bN; test: two-hybrid library CCNG1
T33 chain: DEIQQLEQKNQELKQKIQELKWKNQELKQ

[34] = target: T34, P5A; test: two-hybrid library CCNG1
T34 chain: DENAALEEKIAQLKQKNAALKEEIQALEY

[35] = target: T35, P6A; test: two-hybrid library CCNG1; conditions: mean of both orientations
T35 chain: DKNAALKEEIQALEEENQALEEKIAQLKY

[36] = target: T36, P7A; test: two-hybrid library CCNG1
T36 chain: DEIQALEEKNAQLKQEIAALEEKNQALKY

[37] = target: T37, P8A; test: two-hybrid library CCNG1
T37 chain: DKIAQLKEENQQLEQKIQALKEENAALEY

[38] = target: T38, P9A; test: two-hybrid library CCNG1
T38 chain: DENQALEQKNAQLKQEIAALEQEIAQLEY

Binder: DEIAALEAENAALKAKIAALKAENAALEG [4H235-AA]
interaction score [1]: -1.14
interaction score [2]: -1.7
interaction score [3]: -0.865
interaction score [4]: -1.14
interaction score [5]: -0.985
interaction score [6]: 2.27
interaction score [7]: 1.48
interaction score [8]: -1.68
interaction score [9]: 0.136
interaction score [10]: -1.27
interaction score [11]: -0.98
interaction score [12]: 0.0844
interaction score [13]: -1.12
interaction score [14]: -0.261
interaction score [15]: 0.816
interaction score [16]: -1.48
interaction score [17]: -1.09
interaction score [18]: 0.00925
interaction score [19]: -1.71
interaction score [20]: -1.49
interaction score [21]: -0.571
interaction score [22]: -0.27
interaction score [23]: -1.78
interaction score [24]: -1.28

Binder: ENAALEAKNAALKYKIAALKAKIAALKG [O2]
interaction score [25]: -2.68
interaction score [26]: -2.68
interaction score [27]: -2.74
interaction score [28]: -2.66
interaction score [29]: -2.73
interaction score [30]: -2.83
interaction score [31]: -2.05
interaction score [32]: -1.04

Continued, values first:

interaction score [33]: -0.0824
Binder: DEIQQLEQKNQELKQKIQELKWKNQELKQ [4H496-bN]

interaction score [34]: -1.41
interaction score [35]: 1.19
interaction score [36]: -1.31
interaction score [37]: -1.04
interaction score [38]: -1.38
Binder: DENAALEEKIAQLKQKNAALKEEIQALEY [P5A]
